In US20250002600A1 (Genmab, published 2025):
“And” between values parts separate entries of the source, which are not always exact repeats. Equal values may be shown once.

B1: IgG1-ctrl (antibody)
heavy: not shown
light: EIVLTQSPGTLSLSPGERATFSCRSSHSIRSRRVAWYQHKPGQAPRLVIHGVSNRASGISDRFSGSGSGTDFTLTITRVEPEDFALYYCQVYGASSYTFGQGTKLERKRTVAAPSVFIFPPSDEQLKSGTASVVCLLNNFYPREAKVQWKVDNALQSGNSQESVTEQDSKDSTYSLSSTLTLSKADYEKHKVYACEVTHQGLSSPVTKSFNRGEC
notes: also called IgG1-b12 with wild-type Fc region
B2: IgG1-PD1 (antibody)
heavy: QVQLVESGGGLVQPGTSLRLSCSVSGFSLYSYNMGWVRQAPGKGLEYIGIISGGTIGHYASWAKGRFTISRDTSKTTLYLQMNSLTTEDTATYFCARAFYDDYDYNVWGPGTLVTVSSASTKGPSVFPLAPSSKSTSGGTAALGCLVKDYFPEPVTVSWNSGALTSGVHTFPAVLQSSGLYSLSSVVTVPSSSLGTQTYICNVNHKPSNTKVDKRVEPKSCDKTHTCPPCPAPEFERGPSVFLFPPKPKDTLMISRTPEVTCVVVDVSHEDPEVKFNWYVDGVEVHNAKTKPREEQYNSTYRVVSVLTVLHQDWLNGKEYKCKVSNKALPAPIEKTISKAKGQPREPQVYTLPPSREEMTKNQVSLTCLVKGFYPSDIAVEWESNGQPENNYKTTPPVLDSDGSFFLYSKLTVDKSRWQQGNVFSCSVMHEALHNHYTQKSLSLSPG
light: AIQLTQSPSSLSASVGGTVTITCQSSQSVYGNNQLSWYQQKPGQPPKLLIYQASKLETGVPSRFRGSGSGTQFTLTISSLQSEDFATYYCAGGYSSSSDTTFGGGTEVVVKRTVAAPSVFIFPPSDEQLKSGTASVVCLLNNFYPREAKVQWKVDNALQSGNSQESVTEQDSKDSTYSLSSTLTLSKADYEKHKVYACEVTHQGLSSPVTKSFNRGEC

Columns and labels:
[1] = molecular target: T1, human FcγRIa transiently expressed on CHO-S cells (human, UniProt P12314 16-374); assay: flow cytometry on CHO-S cells transiently expressing human FcγRIa, PE-conjugated goat anti-human IgG F(ab')2, % PE+ cells
T1 construct: whole, on cells; also called cell surface expressed FcγRIa
T1 sequence (P12314 16-374): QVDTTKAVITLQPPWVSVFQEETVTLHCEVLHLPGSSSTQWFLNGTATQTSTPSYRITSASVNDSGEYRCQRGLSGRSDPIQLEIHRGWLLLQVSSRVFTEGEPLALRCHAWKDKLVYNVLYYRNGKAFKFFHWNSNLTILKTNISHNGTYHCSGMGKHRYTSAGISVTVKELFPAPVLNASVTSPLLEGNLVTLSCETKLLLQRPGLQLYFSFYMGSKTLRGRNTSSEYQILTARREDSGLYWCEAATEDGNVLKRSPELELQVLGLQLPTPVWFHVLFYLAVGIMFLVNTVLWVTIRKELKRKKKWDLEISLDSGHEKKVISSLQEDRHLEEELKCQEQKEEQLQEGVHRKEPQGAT
Protocol: Cells were centrifuged, supernatant was removed, and cells (30,000 cells in 50 μL) were incubated with 50 μL of the antibody dilutions for 30 min at 4° C. Cells were washed twice with GMB FACS buffer and incubated with 50 μL secondary antibody (PE-conjugated goat-anti-human IgG F(ab′)2; 1:500) for 30 min at 4° C., protected from light. Cells were washed twice with GMB FACS buffer and resuspended in GMB FACS buffer supplemented with 2 mM EDTA and DAPI viability marker (1:5,000). Antibody binding to viable cells was analyzed by flow cytometry on an Intellicyt iQue PLUS Screener (Intellicyt Corporation) using FlowJo software by gating on PE-positive, DAPI-negative cells. Binding curves were analyzed using non-linear regression analysis (four-parameter dose-response curve fits) in GraphPad Prism.

[2] = molecular target: human PD-1 expressed on reporter Jurkat T cells (PD-1 Effector Cells) (human, UniProt Q15116 25-288); assay: cell-based or functional assay
Chain of human PD-1 expressed on reporter Jurkat T cells (PD-1 Effector Cells) (Q15116 25-288): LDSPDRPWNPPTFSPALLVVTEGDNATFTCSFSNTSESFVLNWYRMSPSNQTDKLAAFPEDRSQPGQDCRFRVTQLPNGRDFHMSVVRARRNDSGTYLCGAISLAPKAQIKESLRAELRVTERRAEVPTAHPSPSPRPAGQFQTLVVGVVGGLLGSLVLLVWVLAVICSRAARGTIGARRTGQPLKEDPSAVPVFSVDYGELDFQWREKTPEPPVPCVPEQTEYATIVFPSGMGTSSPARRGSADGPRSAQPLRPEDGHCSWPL

Binder	EC50 (read off the curve) [1] [µg/mL]	EC50 of PD-1/PD-L1 checkpoint blockade (luminescence, reporter assay) [2]
B1	~0.01	–
B2	–	0.165 µg/mL and 1.12 nM
